# Test results published in patent US20260275311, “CRISPR NUCLEASE POLYPEPTIDES AND GENE EDITING SYSTEMS COMPRISING SUCH” (ARBOR BIOTECHNOLOGIES, INC., published 2026).
# T1: Nuclease K
# T1 chain: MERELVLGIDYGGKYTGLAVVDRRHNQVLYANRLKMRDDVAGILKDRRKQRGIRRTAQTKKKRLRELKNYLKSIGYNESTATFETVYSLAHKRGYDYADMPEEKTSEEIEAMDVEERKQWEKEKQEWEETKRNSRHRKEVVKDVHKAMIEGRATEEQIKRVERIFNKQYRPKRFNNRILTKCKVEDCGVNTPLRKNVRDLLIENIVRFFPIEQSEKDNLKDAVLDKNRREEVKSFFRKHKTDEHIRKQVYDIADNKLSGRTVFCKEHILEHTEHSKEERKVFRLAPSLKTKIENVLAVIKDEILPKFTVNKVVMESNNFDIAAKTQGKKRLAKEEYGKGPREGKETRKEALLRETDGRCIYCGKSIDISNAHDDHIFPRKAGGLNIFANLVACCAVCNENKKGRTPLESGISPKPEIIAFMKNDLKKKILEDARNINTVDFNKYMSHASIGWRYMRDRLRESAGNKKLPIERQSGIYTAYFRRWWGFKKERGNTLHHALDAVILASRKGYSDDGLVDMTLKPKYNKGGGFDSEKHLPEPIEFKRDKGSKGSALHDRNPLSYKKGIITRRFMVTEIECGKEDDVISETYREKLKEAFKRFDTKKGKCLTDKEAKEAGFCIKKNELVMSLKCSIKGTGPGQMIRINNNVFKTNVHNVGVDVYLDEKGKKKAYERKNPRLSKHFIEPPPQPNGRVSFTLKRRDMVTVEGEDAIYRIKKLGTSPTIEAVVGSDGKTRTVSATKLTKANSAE
# Legend:
# Nuclease K [1] = target: T1, Nuclease K; experiment: cell_activity; PAM NGG (AGG); HEK293T; row labelled Reference SEQ ID NO: 1, text says Nuclease K; details: tags: N-terminal SV40 NLS, C-terminal nucleoplasmin NLS
# Nuclease K [2] = target: T1, Nuclease K; experiment: cell_activity; PAM NGG (GGG); HEK293T; details: tags: N-terminal SV40 NLS, C-terminal nucleoplasmin NLS
binder,measurement,setting,value
Nuclease K AAVS1-T3 guide ; AAVS1-T3 target (ssRNA ; dsDNA) RNA: UUGUGAGAAUGGUGCGUCCUGUUACAGUUAAGGCUCUGAAAAGAGCCUUAAUUGUAAAACGCCUAUACAGUGAAGGGAUAUACGCUUGGGUUUGUCCAGCCUGAGCCUCUAUGCCAGAAAUGGCGCCUUCAUCGUGGGUUAGGACAUUUAAAUUUAAAAACUAUUCAGCACUGUUUGCUCUUGUCAGCUUGGUGGCAGA DNA 1: TTGTGAGAATGGTGCGTCCT DNA 2: AGGACGCACCATTCTCACAA,activity,Nuclease K [1],0.037 indel ratio
Nuclease K EMX1-T7 guide ; EMX1-T7 target (ssRNA ; dsDNA) RNA: CUUUAGCAAGGGACUAUUCAGUUACAGUUAAGGCUCUGAAAAGAGCCUUAAUUGUAAAACGCCUAUACAGUGAAGGGAUAUACGCUUGGGUUUGUCCAGCCUGAGCCUCUAUGCCAGAAAUGGCGCCUUCAUCGUGGGUUAGGACAUUUAAAUUUAAAAACUAUUCAGCACUGUUUGCUCUUGUCAGCUUGGUGGCAGA DNA 1: CTTTAGCAAGGGACTATTCA DNA 2: TGAATAGTCCCTTGCTAAAG,activity,Nuclease K [2],0.011 indel ratio
